Source: patent CN115819578A (WUHAN ABCLONAL INC, dated 2023)
Values belong to the binder of their own block, whether it stands above or below them.

Target: T1, 重组人IL-5蛋白 (recombinant Human IL-5, R&D Systems 205-IL-005) (human, UniProt P05113 20-134)
T1 construct: Bought protein; also called 重组human IL-5; His-tag重组human IL-5
T1 sequence (looked up): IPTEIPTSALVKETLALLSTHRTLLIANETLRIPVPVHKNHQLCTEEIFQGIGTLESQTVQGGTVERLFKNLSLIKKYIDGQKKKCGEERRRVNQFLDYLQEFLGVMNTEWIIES
Assay: BLI (Probe Life Gator), antibody 2 μg/mL on proA probe, recombinant human IL-5 at 150 nM and 70 nM

- Kd: 4.03 nM
B1: 兔单克隆抗体16D2 (anti-human IL-5 rabbit monoclonal antibody 16D2) (antibody, V domains shown)
VH: QEQLEESGGDLVKPEGSLTLTCTASGFSFSINYWICWVRQAPGKGLEWIACIYGGSSGSAYYATWAKGRFTISKTSSTTVTLQMTSLTAADTATYFCARDDEGGGIFYNLWGPGTLVTVSS
VL: AYDMTQTPSSASEPVGGTVTIKCQASEDIYNLLAWYQQKPGQPPKLLIYSASTLASGVPSRFKGSGSGTEYTLTISDLECADAATYYCEQHYTPSNVHNTFGGGTEVVVKG
notes: also called 16D2抗体; 抗人IL-5兔单克隆抗体16D2

- Kd: 0.306 nM
B2: 兔单克隆抗体24A10 (anti-human IL-5 rabbit monoclonal antibody 24A10) (antibody, V domains shown)
VH: QSLEESGGGLVQPEGSLTLTCTASGFSFSSSYYMCWVRQAPGKGLEWIGCIAAGSSGISYYASWAKGRFTISKTSSTTVTLQMTGLTAADTATYLCSRSCDIYSDGGTSFDLWGPGTLVTVSS
VL: DVVMTQTPASVSEPVGGTVTIKCQASQSISSYLAWYQQKPGQPPKLLIYEASKLASGVPSRFKGSGSGTEFTLTISDLECADAATYYCESNYDITSSYFGGGTEVVVKG
notes: in the BLI assays it was unlabelled; also called 24A10抗体; 人IL-5兔单克隆抗体24A10
